Changes are numbered by the printed parent chain.
B1: NRP1-1 (VHH)
VHH: EVQLVESGGGLVQPGGSLRLSCAASGRTFRRYAMGWFRQAPGKEREFVASISRSGTLTRYADSVKGRFTISADNSKNTAYLQMNSLKPEDTAVYYCAAKTGAFSYGSLWWMSRAYNWGQGTLVTVSS
B2: NRP1-96 (VHH)
VHH: EVQLVESGGGLVQPGGSLRLSCAASGLTYTMSWFRQAPGKEREFVAGFSGSGSVTSYADSVKGRFTISADNSKNTAYLQMNSLKPEDTAVYYCAAFDGYSGSDWGQGTLVTVSS
B3: NRP1-71 (VHH)
VHH: EVQLVESGGGLVQPGGSLRLSCAASGRTFSNAAMGWFRQAPGKERELVARITPGGNTNYADSVKGRFTISADNSKNTAYLQMNSLKPEDTAVYYCAARRIVNVEGAYRDWGQGTLVTVSS
B4: NRP1-46 (VHH)
VHH: B3 VHH with R27F, S30R, A32F, A33G, L47I, T52S, G54S, N58Y
B5: NRP1-48 (VHH)
VHH: B3 VHH with R27F, S30R, A32F, A33G, P53G, N56S, N58A
B6: NRP1-51 (VHH)
VHH: B3 VHH with R27F, T28A, A32Y, A33H
B7: NRP1-59 (VHH)
VHH: B3 VHH with F29I, R50S, T52S, P53R, G54F, N56R
B8: NRP1-65 (VHH)
VHH: B3 VHH with F29I, L47W, R50A, P53S, N56Y, N58H
B9: NRP1-77 (VHH)
VHH: B3 VHH with T28I, S30I, A32N, T52S, G54A, N56S, N58Y
B10: NRP1-100 (VHH)
VHH: B3 VHH with T28S, F29V, N31T, A32Y, A33G, R50S, T52S, P53R, G54F, N56R
B11: NRP1-78 (VHH)
VHH: EVQLVESGGGLVQPGGSLRLSCAASGRTFRSYPMGWFRQAPGKEREWVASITSSATAYADSVKGRFTISADNSKNTAYLQMNSLKPEDTAVYYCALGPVRRSRLEWGQGTLVTVSS
B12: NRP1-79 (VHH)
VHH: EVQLVESGGGLVQPGGSLRLSCAASGRTYYAMGWFRQAPGKEREFVAAISWGGGLTVYADSVKGRFTISADNSKNTAYLQMNSLKPEDTAVYYCASSGWLTDYYYAMDVWGQGTLVTVSS
B13: NRP1-80 (VHH)
VHH: EVQLVESGGGLVQPGGSLRLSCAASGSIDRINAMGWFRQAPGKEREFVASIWWTFDAPYYADSVKGRFTISADNSKNTAYLQMNSLKPEDTAVYYCATWTTTWGRNRDWGQGTLVTVSS
B14: NRP1-37 (VHH)
VHH: EVQLVESGGGLVQPGGSLRLSCAASGRTFSIYAMGWFRQAPGKERELVAAISRTGGSTYYADSVKGRFTISADNSKNTAYLQMNSLKPEDTAVYYCAADRMYRPVGNQYDWGQGTLVTVSS
B15: NRP1-47 (VHH)
VHH: B14 VHH with T28S, F29S, S30R, I31Y, L47F, S52K, R53W, T54S, G56T
B16: NRP1-75 (VHH)
VHH: B14 VHH with F29I, I31V, S52N, T54S, G56K
B17: NRP1-81 (VHH)
VHH: B14 VHH with T28S, F29S, S30R, I31Y, L47F, S52R, R53W, G56M, S57N, Y59H
B18: NRP1-86 (VHH)
VHH: EVQLVESGGGLVQPGGSLRLSCAASGNIFINNAMGWFRQAPGKERELVAAITSSSGRRWYADSVKGRFTISADNSKNTAYLQMNSLKPEDTAVYYCAADRMYRPVGNQYDWGQGTLVTVSS
B19: NRP1-99 (VHH)
VHH: B14 VHH with F29S, S30N, L47F, T54S, S57L, T58K, Y59S
B20: NRP1-106 (VHH)
VHH: B14 VHH with D99R, M101I, Y102V, R103N, P104V, V105E, N107A, Q108Y, Y109R
B21: NRP1-114 (VHH)
VHH: B14 VHH with T28S, F29S, S30R, I31Y, L47F, S52R, R53W, T54S, S57T, Y59F
B22: NRP1-76 (VHH)
VHH: EVQLVESGGGLVQPGGSLRLSCAASGITFRRYAMGWFRQAPGKEREIVATIWWTFDAPYYADSVKGRFTISADNSKNTAYLQMNSLKPEDTAVYYCAAYQAGWGDWGQGTLVTVSS
B23: NRP1-2 (VHH)
VHH: B22 VHH with I27G, R30T, R31K, Y32Q, A33T, I47F
B24: NRP1-61 (VHH)
VHH: B22 VHH with I27R, R30S, I47W, T50G, W52S, F55G, D56G, A57I, P58T, A101R
B25: NRP1-72 (VHH)
VHH: B22 VHH with I27R, I47F, W52S, T54S, F55G, D56A, A57L, P58T, Y59H, A101R
B26: NRP1-74 (VHH)
VHH: B22 VHH with I27S, F29L, R31D, A33T, I47F
B27: NRP1-83 (VHH)
VHH: B22 VHH with I27S, T28I, F29G, R31E, Y32V, I47L
B28: NRP1-85 (VHH)
VHH: EVQLVESGGGLVQPGGSLRLSCAASGSRFSGRFNILNMGWFRQAPGKERESVAAINWSGGTSTYYADSVKGRFTISADNSKNTAYLQMNSLKPEDTAVYYCAAGSNIGGSRWRYDWGQGTLVTVSS
B29: NRP1-7 (VHH)
VHH: EVQLVESGGGLVQPGGSLRLSCAASGRIFIIYAMGWFRQAPGKERELVAAITRTGGRPCYADSVKGRFTISADNSKNTAYLQMNSLKPEDTAVYYCAARRMLSPEGAHPDWGQGTLVTVSS

molecular target: T1, neuropilin-1 (NRP1) on HEK293 cells overexpressing NRP1 (UniProt O14786 22-923, limits assumed); assay: flow cytometry, HEK293-NRP1 vs HEK293
T1 construct: whole, on cells

In order of rising “100 nM FACS (MFI Ratio)” value:
1. B3  0.4
2. B7  0.4
3. B10  0.6
4. B5  0.7
5. B8  0.7
6. B6  0.8
7. B19  0.8
8. B24  0.9
9. B2  1.4
10. B4  2.2
11. B20  2.2
12. B18  2.4
13. B25  3
14. B22  3.1
15. B11  3.6
16. B16  4.2
17. B9  4.9
18. B17  5
19. B28  5
20. B26  5.8
21. B15  6.6
22. B13  6.9
23. B27  6.9
24. B21  8.7
25. B14  8.8
26. B12  13.2
27. B1  15.4
28. B23  15.7
29. B29  233

— US20230265198A1 (TWIST BIOSCIENCE, published 2023)
